These results are taken from paper PMC9521185, “Self-assembly and label-free fluorescent aptasensor based on deoxyribonucleic acid intercalated dyes for detecting lactoferrin in milk powder”.

The target in the data set is lactoferrin (LF) (bovine (milk), UniProt P24627 20-708). In words: PicoGreen dye-displacement fluorescence; PicoGreen; LF 100 nM and 1 uM; linear 20-500 nM, LOD 3 nM; Buffer, salt, pH and temperature not in the material; fluorescence ex 485 nm / em 528 nm, microplate reader. The note with it: protein: commercial; label: none (label-free; PicoGreen intercalated).
Chain of lactoferrin (LF) (P24627 20-708): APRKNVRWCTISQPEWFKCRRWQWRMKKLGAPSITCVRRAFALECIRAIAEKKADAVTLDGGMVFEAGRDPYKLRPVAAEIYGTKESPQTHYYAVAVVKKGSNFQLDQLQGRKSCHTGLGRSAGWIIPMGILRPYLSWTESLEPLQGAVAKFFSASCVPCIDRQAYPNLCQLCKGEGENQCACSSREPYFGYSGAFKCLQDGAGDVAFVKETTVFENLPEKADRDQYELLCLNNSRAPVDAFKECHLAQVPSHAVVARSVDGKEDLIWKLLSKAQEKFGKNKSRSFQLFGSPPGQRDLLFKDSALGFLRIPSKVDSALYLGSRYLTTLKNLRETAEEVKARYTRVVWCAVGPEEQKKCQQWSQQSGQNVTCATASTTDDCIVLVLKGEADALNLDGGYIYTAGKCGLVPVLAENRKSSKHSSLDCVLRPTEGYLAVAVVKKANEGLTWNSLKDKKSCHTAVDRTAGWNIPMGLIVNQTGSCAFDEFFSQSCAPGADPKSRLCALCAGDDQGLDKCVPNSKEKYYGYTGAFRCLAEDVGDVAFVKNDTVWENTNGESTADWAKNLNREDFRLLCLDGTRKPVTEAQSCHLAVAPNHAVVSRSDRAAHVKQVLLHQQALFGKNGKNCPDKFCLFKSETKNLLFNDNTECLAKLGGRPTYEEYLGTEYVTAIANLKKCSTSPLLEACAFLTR

B1: LF aptamer (ssDNA)
DNA: TGGTGCTGCCCCTAGTCTCCGGCTGATAGCTGCTTCTTGG
B1: the binding result is recorded as “binds”.
